Test [1] concerns the target T1, rHuman P-Cadherin/Fc Chimera, CF (R&D Systems Cat#861-PC) (human, UniProt P22223 108-654).
T1 construct: Bought recombinant protein; Fc part of the bought chimera not given
Put plainly: MSD multispot ECL, antigen spotted on plate; Fab 0.1275 uM; blank spot 530.

Test [2] deals with T2, rHuman Erythropoietin R/Fc Chimera, CF (R&D Systems Cat#963-ER) (human, UniProt P19235 25-250).
T2 construct: Bought recombinant protein; also called EPO R; EPO R/Fc; Fc part of the bought chimera not given
T2 sequence (looked up): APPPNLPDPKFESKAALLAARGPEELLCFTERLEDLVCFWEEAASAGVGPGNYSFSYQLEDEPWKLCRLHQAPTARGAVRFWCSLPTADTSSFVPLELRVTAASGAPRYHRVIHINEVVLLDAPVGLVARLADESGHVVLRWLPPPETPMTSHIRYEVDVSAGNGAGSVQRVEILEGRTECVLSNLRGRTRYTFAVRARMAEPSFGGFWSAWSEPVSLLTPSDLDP
Put plainly: ECL multispot (MSD) assay, spotted antigen; Fab 0.20 (head prints uM).

In test [3] the target is T3, Recombinant Human DLL4 (R&D Systems Cat#1506-D4/CF) (human, UniProt Q9NR61 27-524).
T3 construct: Bought recombinant protein; also called delta-like protein 4
The test is described as above.

Test [4] deals with T4, rHuman ErbB2/Fc Chimera, CF (R&D Systems Cat#1129-ER) (human, UniProt P04626 23-652).
T4 construct: Bought recombinant protein; Fc part of the bought chimera not given
The test is described as above.

Test [5] addresses T5, rHuman EGF R/Fc Chimera, CF (R&D Systems Cat#344-ER) (human, UniProt P00533 25-645).
T5 construct: Bought recombinant protein; Fc part of the bought chimera not given
The test is described as above.

Test [6] concerns the target T6, rHuman HGF R/c-MET/Fc Chimera, CF (R&D Systems Cat#358-MT/CF) (human, UniProt P08581 25-932).
T6 construct: Bought recombinant protein; also called HGF R/Fc; Fc part of the bought chimera not given
Described as above.

The target in test [7] is T7, rHuman Notch-1/Fc Chimera, CF (R&D Systems Cat#3647-TK) (human, UniProt P46531 19-526).
T7 construct: Bought recombinant protein; Fc part of the bought chimera not given
The description is as above.

Test [8] concerns the target T8, rHuman CD44/Fc Chimera, CF (R&D Systems Cat#3660-CD) (human, UniProt P16070 21-220).
T8 construct: Bought recombinant protein; Fc part of the bought chimera not given
The test is described as above.

Test [9] has as its target T9, rHuman IGF-1 sR, CF (R&D Systems Cat#391-GR) (human, UniProt P08069 31-932).
T9 construct: Bought soluble receptor; The column head prints only 'IGF-1'; also called insulin-like growth factor-1 soluble receptor
The test is described as above.

Test [10] has as its target T10, rHuman P-Cadherin/Fc Chimera, CF (R&D Systems Cat#861-PC) (human, UniProt P22223 108-654).
T10 construct: Bought recombinant protein; Fc part of the bought chimera not given
Described as above.

Test [11] concerns the target T11, Recombinant Human DLL4 (R&D Systems Cat#1506-D4/CF) (human, UniProt Q9NR61 27-524).
T11 construct: Bought from R&D Systems; also called rHuman DLL4; delta-like protein 4
Put plainly: MSD multispot ECL, antigen spotted on plate, Fab 11 nM; blank spot 212.

Test [12] has as its target T12, rHuman ErbB2/Fc Chimera, CF (R&D Systems Cat#1129-ER) (human, UniProt P04626 23-652).
T12 construct: Bought from R&D Systems; also called human epidermal growth factor 2 receptor (ErbB2); not shown: Fc of the bought chimera
The description is as above.

The target of test [13] is T13, rHuman EGF R/Fc Chimera, CF (R&D Systems Cat#344-ER) (human, UniProt P00533 25-645).
T13 construct: Bought from R&D Systems; also called epidermal growth factor receptor (EGF R); not shown: Fc of the bought chimera
The test is described as above.

In test [14] the target is T14, rHuman HGF R/c-MET/Fc Chimera, CF (R&D Systems Cat#358-MT/CF) (human, UniProt P08581 25-932).
T14 construct: Bought from R&D Systems; also called HGF R/Fc; hepatocyte growth factor receptor (HGF R/c-Met); not shown: Fc of the bought chimera
Described as above.

The target of test [15] is T15, rHuman Notch-1/Fc Chimera, CF (R&D Systems Cat#3647-TK) (human, UniProt P46531 19-526).
T15 construct: Bought from R&D Systems; not shown: Fc of the bought chimera
The test is described as above.

Test [16] addresses T16, rHuman CD44/Fc Chimera, CF (R&D Systems Cat#3660-CD) (human, UniProt P16070 21-220).
T16 construct: Bought from R&D Systems; not shown: Fc of the bought chimera
The test is described as above.

For test [17], the target named is T17, rHuman IGF-1 sR, (IGF-1 sR), CF (R&D Systems Cat#391-GR) (human, UniProt P08069 31-932).
T17 construct: Bought from R&D Systems and called a soluble receptor; also called insulin-like growth factor-1 soluble receptor
Described as above.

Test [18] addresses T18, rHuman P-Cadherin/Fc Chimera, CF (R&D Systems Cat#861-PC) (human, UniProt P22223 108-654).
T18 construct: Bought from R&D Systems; not shown: Fc of the bought chimera
The description is as above.

Test [19] concerns the target T19, rHuman Erythropoietin R/Fc Chimera, CF (R&D Systems Cat#963-ER) (human, UniProt P19235 25-250).
T19 construct: Bought from R&D Systems; also called EPO R/Fc; Epo R/Fc chimera; not shown: Fc of the bought chimera
T19 sequence (looked up): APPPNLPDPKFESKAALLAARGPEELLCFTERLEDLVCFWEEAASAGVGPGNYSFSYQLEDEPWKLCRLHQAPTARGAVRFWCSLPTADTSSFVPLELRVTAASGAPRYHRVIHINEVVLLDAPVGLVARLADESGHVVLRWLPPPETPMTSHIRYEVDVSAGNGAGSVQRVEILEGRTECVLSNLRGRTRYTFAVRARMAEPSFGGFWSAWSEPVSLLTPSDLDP
The description is as above.

B1: Fab VH4-34_IGHD7-27*01_IGHJ4*01 & L5_IGKJ1*01 (Fab, V domains shown)
VH: QVQLQQWGAGLLKPSETLSLTCAVYGGSFSGYYWSWIRQPPGKGLEWIGEINHSGSTNYNPSLKSRVTISVDTSKNQFSLKLSSVTAADTAVYYCARANWGDYFDYWGQGTLVTVSS
VL: DIQMTQSPSSVSASVGDRVTITCRASQGISSWLAWYQQKPGKAPKLLIYAASSLQSGVPSRFSGSGSGTDFTLTISSLQPEDFATYYCQQANSFPPWTFGQGTKVEIKR
notes: Germline library Fab expressed in E. coli; VH was cloned into Plasmid A, which adds CH1 with His6 and Flag tags
Molecule B1 had an ECL signal in [1] of 957.

B2: Fab VH5-51_IGHD5-18*01>3_IGHJ4*01 G100K/G104T & V3-4_IGLJ1*01 (Fab, V domains shown)
VH: EVQLVQSGAEVKKPGESLKISCKGSGYSFTSYWIGWVRQMPGKGLEWMGIIYPGDSDTRYSPSFQGQVTISADKSISTAYLQWSSLKASDTAMYYCARRKYSYTYDYFDYWGQGTLVTVSS
VL: QTVVTQEPSFSVSPGGTVTLTCGLSSGSVSTSYYPSWYQQTPGQAPRTLIYSTNTRSSGVPDRFSGSILGNKAALTITGAQADDESDYYCVLYMGSGISYVFGTGTKVTVL
notes: Tested as a Fab; The constant parts are the same as for the parent Fab (CH1 with His6/Flag tags, lambda CL); also called KT double mutant; H:KT
On to B2, for which the ECL signal/noise ratio was determined as 1.7 in test [2]; 3 in [3]; 2.5 in [4]; 1.5 in [5]; 2.4 in test [6]; 1.9 in test [7]. Further, the figures for the ECL signal/noise ratio in [8], in test [9] and in [10] were 1.3, 1.9 and 1.7, respectively.

B3: Fab VH1-46_IGHD3-10*01_IGHJ4*01 & B3_IGKJ1*01 (Fab, V domains shown)
VH: QVQLVQSGAEVKKPGASVKVSCKASGYTFTSYYMHWVRQAPGQGLEWMGIINPSGGSTSYAQKFQGRVTMTRDTSTSTVYMELSSLRSEDTAVYYCAREYYYGSGSYYNDYFDYWGQGTLVTVSS
VL: not shown
notes: Tested as a Fab made in E. coli; VH was cloned into Plasmid A (CH1 constant region, His6 and Flag tags); The kappa VL was cloned into Plasmid C (kappa CL)
Take B3: the ECL signal was found to be 254 in test [11]; 216 in [12]; 201 in [13]; 268 in test [14]; 404 in test [15]; 296 in test [16]. Also, the ECL signal turned out to be 289 in [17], 270 in test [18] and 1820 in test [19].

The values above are taken from patent publication US20120316071A1 (published 2012).
